Assay results: paper PMC11503491 (ACS Central Science, 2024)

Columns and labels:
[1] = target: SARS-CoV-2 RBD (RWT), wild-type Wuhan Hu-1 receptor-binding domain, residues 319-533 (SARS-CoV-2 Wuhan Hu-1); test: BLI; conditions: both partners purified
[2] = target: wild-type SARS-CoV-2 Wuhan Hu-1 receptor-binding domain (residues 319-533) (SARS-CoV-2 Wuhan-Hu-1); test: BLI; conditions: both partners purified

Row | Binder | binding result [2] | further results
1 | CB6 (class 1 RBD-directed antibody) (antibody, V domains shown) VH: EVQLVESGGGLVQPGGSLRLSCAASGFTVSSNYMSWVRQAPGKGLEWVSVIYSGGSTFYADSVKGRFTISRDNSMNTLFLQMNSLRAEDTAVYYCARVLPMYGDYLDYWGQGTLVTVSS VL: not shown |  | koff [1]: 0.013 s⁻¹
2 | CR3022 (class 4 RBD-directed antibody) (antibody, V domains shown, IgG) VH: QMQLVQSGTEVKKPGESLKISCKGSGYGFITYWIGWVRQMPGKGLEWMGIIYPGDSETRYSPSFQGQVTISADKSINTAYLQWSSLKASDTAIYYCAGGSGISTPMDVWGQGTTVTVSS VL: not shown |  | koff [1]: 0.016 s⁻¹
3 | S2X259 IgG (antibody, V domains shown, also called class 4 mAb) VH: QVQLVQSGAEVKKPGSSVKVSCKASGGIFNTYTISWVRQAPGQGLEWMGRIILMSGMANYAQKIQGRVTITADKSTSTAYMELTSLRSDDTAVYYCARGFNGNYYGWGDDDAFDIWGQGTLVTVYS VL: QTVLTQPPSVSGAPGQRVTISCTGSNSNIGAGYDVHWYQQLPGTAPKLLICGNSNRPSGVPDRFSGSKSGTSASLAITGLQAEDEADYYCQSYDSSLSGPNWVFGGGTKLTVL |  | koff [2]: 0.0011 s⁻¹
4 | SA55 (antibody, V domains shown, also called S2X259-like class 4 antibody) VH: QVQLVQSGAEVKKPGSSVKVSCKASGGTFRSHVISWVRQAPGQGLEWMGGFIPLFGTTIYAQAFQGRVMISADESTSTAYMELSSLRSEDTAVYFCARLFPNGDPNSPEDGFDIWGQGTLVTVSS VL: DIQMTQSPSSLSASVGDRVTITCQASQDIGNYLNWYQQKPGKAPKLLIYDASHLETGVPSRFSGSGSGTDFTFTISSLQPEDIATYYCQRYDDLPSYTFGQGTKVEIK | binds | 
5 | fragment antigen-binding region (Fab) of S2X259 (Fab, V domains shown, also called S2X259 Fab) VH: QVQLVQSGAEVKKPGSSVKVSCKASGGIFNTYTISWVRQAPGQGLEWMGRIILMSGMANYAQKIQGRVTITADKSTSTAYMELTSLRSDDTAVYYCARGFNGNYYGWGDDDAFDIWGQGTLVTVYS VL: QTVLTQPPSVSGAPGQRVTISCTGSNSNIGAGYDVHWYQQLPGTAPKLLICGNSNRPSGVPDRFSGSKSGTSASLAITGLQAEDEADYYCQSYDSSLSGPNWVFGGGTKLTVL |  | Kd [2]: 970 ± 500 pM
6 | C022 (antibody, V domains shown, also called S2X259-like class 4 antibody) VH: QVQLQESGPGLVKPSETLSVTCTVSGGSISSSRYYWGWIRQPPGKGLEWIGSIYYSGSTYYNPSLKSRVTISVDTSKNQFSLKLSSVTAADTAVYYCARHAAAYYDRSGYYFIEYFQHWGQGTLVTVSS VL: DIQMTQSPSTLSASVGDSVTITCRASQSISSWLAWYQQKPGKAPKLLIYKASSLESGVPSRFSGSGSGTEFTLTISSLQPDDFATYYCQQYNNYRYTFGQGTKLEIK | binds | 
7 | 1-16 (antibody, V domains shown, also called S2X259-like class 4 antibody) VH: QVQLVQSGAEVKKPGASVKVSCKASGYTFTSYYMHWVRQAPGQGLEWMGIINSSGGSTSYAQKFQGRVTMTRDTSTSTVYMELSSLRSEDTAVYYCARPPRNYYDRSGYYQRAEYFQHWGQGTLVTVSS VL: DIQLTQSPSSLSASVGDRVTITCQASQDISNYLNWYQQRPGKAPKLLIYDASNLETGVPSRFSGSGSGTDFTFTISSLQPEDIATYYCQQYDNPPLTFGGGTKLEIK | binds | 
8 | CB6 (antibody, V domains shown) VH: EVQLVESGGGLVQPGGSLRLSCAASGFTVSSNYMSWVRQAPGKGLEWVSVIYSGGSTFYADSVKGRFTISRDNSMNTLFLQMNSLRAEDTAVYYCARVLPMYGDYLDYWGQGTLVTVSS VL: not shown | binds | 
9 | C002 (antibody, V domains shown) VH: EVQLVESGGGVVQPGRSLRLSCAASGFTFSIYGMHWVRQAPGKGLEWVAVISYDGSNKYYADSVKGRFTISRDNSKNTLYLQMNSLRAEDTAVYYCAKEGRPSDIVVVVAFDYWGQGTLVTVSS VL: not shown | binds | 
10 | COVA2-15 (antibody, V domains shown, also called class 2 antibody) VH: QVQLLESGGGLVQPGGSLRLSCAASGFTFSSYAMSWVRQAPGKGLEWASAISGSGGSTYYADSVEGRFTISRDNSKNTLYLQMNSLRAEDTAVYYCAKDTGYCGDDCYIKLIRGGPDYWGQGTLVTVSS VL: DIVMTQSPLSLPVTLGQPASISCRSSQSLVYSDGNTFLNWFQQRPGQSPRRLIYQVSNRDSGVPDRFSGSGSGTDFTLKISRVEAEDVGVYYCMQGTHWPRTFGQGTKLEIK | binds | 
11 | CR3022 (antibody, V domains shown, also called class 4 antibody) VH: QMQLVQSGTEVKKPGESLKISCKGSGYGFITYWIGWVRQMPGKGLEWMGIIYPGDSETRYSPSFQGQVTISADKSINTAYLQWSSLKASDTAIYYCAGGSGISTPMDVWGQGTTVTVSS VL: not shown | binds | 
